B1: Ribonuclease, P00648 (parent)
chain: MMKMEGIALKKRLSWISVCLLVLVSAAGMLFSTAAKTETSSHKAHTEAQVINTFDGVADYLQTYHKLPDNYITKSEAQALGWVASKGNLADVAPGKSIGGDIFSNREGKLPGKSGRTWREADINYTSGFRNSDRILYSSDWLIYKTTDHYQTFTKIR

Variants of: B1
Conditions: Bacillus amyloliquefaciens; pH 6.3; 25 °C; Urea; Fluorescence; MES 50 micro M; reversible: yes; structure 1BNI; whole UniProt chain shown
With V92A the “ddG of mutation (higher = less stable)” value was 1.72 kcal/mol. For V92T, the “ddG of mutation (higher = less stable)” value was 2.32 kcal/mol. In the case of I98V, the “ddG of mutation (higher = less stable)” value is reported as 1.8 kcal/mol. With Y125F the “ddG of mutation (higher = less stable)” value was 1.35 kcal/mol. With H65Q the “ddG of mutation (higher = less stable)” value was 1.44 kcal/mol. For L80Q, the “ddG of mutation (higher = less stable)” value was 1.3 kcal/mol. For S139A, the “ddG of mutation (higher = less stable)” value was 2.8 kcal/mol. For I72V, the “ddG of mutation (higher = less stable)” value was 1.12 kcal/mol. With I123V the “ddG of mutation (higher = less stable)” value was 0.82 kcal/mol. With Y64A the “ddG of mutation (higher = less stable)” value was 2.43 kcal/mol. For I51V, the “ddG of mutation (higher = less stable)” value was 0.67 kcal/mol. For K109R, the “ddG of mutation (higher = less stable)” value was 0.43 kcal/mol. In the case of N124A, the “ddG of mutation (higher = less stable)” value is reported as 1.66 kcal/mol. In the case of Y60A Y64A, the “ddG of mutation (higher = less stable)” value is reported as 5 kcal/mol. For N52A, the “ddG of mutation (higher = less stable)” value was 1.85 kcal/mol. In the case of T53A, the “ddG of mutation (higher = less stable)” value is reported as 2.15 kcal/mol. With T53G the “ddG of mutation (higher = less stable)” value was 1.21 kcal/mol. For T73G, the “ddG of mutation (higher = less stable)” value was 1.42 kcal/mol. For T73A, the “ddG of mutation (higher = less stable)” value was 1.93 kcal/mol. For T63S Y64A, the “ddG of mutation (higher = less stable)” value was 2.55 kcal/mol. For T146V, the “ddG of mutation (higher = less stable)” value was 2.99 kcal/mol. For N105A, the “ddG of mutation (higher = less stable)” value was 2.17 kcal/mol. In the case of I135V, the “ddG of mutation (higher = less stable)” value is reported as 1.34 kcal/mol. For I102V, the “ddG of mutation (higher = less stable)” value was 0.3 kcal/mol. For I156V, the “ddG of mutation (higher = less stable)” value was 0.76 kcal/mol. With N131A the “ddG of mutation (higher = less stable)” value was 2.02 kcal/mol. For T152V, the “ddG of mutation (higher = less stable)” value was 2.25 kcal/mol. In the case of V83T, the “ddG of mutation (higher = less stable)” value is reported as 1.15 kcal/mol. For L61A, the “ddG of mutation (higher = less stable)” value was 4.32 kcal/mol. In the case of E76G, the “ddG of mutation (higher = less stable)” value is reported as 1.76 kcal/mol. In the case of Y60A, the “ddG of mutation (higher = less stable)” value is reported as 3.71 kcal/mol. In the case of S138A, the “ddG of mutation (higher = less stable)” value is reported as 1.94 kcal/mol. In the case of T63R, the “ddG of mutation (higher = less stable)” value is reported as -0.47 kcal/mol. For T63S, the “ddG of mutation (higher = less stable)” value was 1.68 kcal/mol. For V57A, the “ddG of mutation (higher = less stable)” value was 3.4 kcal/mol. In the case of V57T, the “ddG of mutation (higher = less stable)” value is reported as 2.48 kcal/mol.

Source: FireProtDB (doi:10.1016/0022-2836(92)90563-y)
